Test results from publication PMC6448596 (Cell reports, 2019).

Molecular target: His-SUMO-WDR5(22–334) (human, UniProt P61964 22-334)
Test: AlphaScreen or HTRF

Binder: ARTEVHLRKS [10-mer-Thr-FAM (ARTEVHLRKS-(Ahx-Ahx)(Lys-(5-FAM)))]
- binding result: binds
